{
  "source": "the nanobody polyreactivity screen of Harvey et al. (2022)",
  "data": [
    {"assay": "yeast display, Sf9 membrane polyspecificity reagent, FACS + sequencing; frameworks hold sequencing errors", "procedure,_shortened": "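Galactose-induced (36–48 hours) yeast carrying a synthetic nanobody display library were exposed to 10% biotinylated, detergent-solubilized Sf9 membrane reagent at 4 °C for 1 hour. FACS followed streptavidin microbead enrichment, using low and high (top ~1%) gates for expression (anti-HA) and reagent binding (streptavidin). Colony PCR, MiSeq 2 × 250 sequencing and CDR-length filtering followed. Labels for polyreactivity reflect the gate of origin.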", "values": [
      {"sequence": "QAQLVESGGGLVQAGRSLRLSCAASGSTFRWYAMGWYRQAPGKERELVAAITSSGSTYYADSVKGRFTISRDNAKTTVYLQMNSLKPEDTAVYYCAARANGYWNTYEHDYWGQGIQVTVSS", "polyreactivity (PSR sort gate)": "low polyreactivity"},
      {"sequence": "QVQLVESGGGLVQAGGSLRLSCAASGRTFPGNAMGWYRQAPGKERELVAAITRVGSTYYADSVKGRFTISRDNAKNTVYLQMNSLKPEDTAVYYCAADRLEGYYEDDATGFDYWRQGTQVTVSS", "polyreactivity (PSR sort gate)": "low polyreactivity"},
      {"sequence": "QVQLVESGGGLVQAGGSLRLSCAASGITFNYYAMGWYRQAPGKERELVAAISWSGDRTYYADTVKGRFTISRDNAKYTVYLQMNSLKPEDTAVYYCAAKSVGEGDYWGQGTQVTVSS", "polyreactivity (PSR sort gate)": "low polyreactivity"},
      {"sequence": "QVQLVESGGGLVQAGGSLRLICAASGRTFYIYTMGWYREAPGKERELVAAISSSGDSTYYADSLKGRFTISRDNAKNTVYLQMNSLKPEDTAVYYCAAYPTYPDEYWGEGTQVTVSS", "polyreactivity (PSR sort gate)": "low polyreactivity"},
      {"sequence": "QVHLVESGGGLVQAGGTLRLRCAASGSTFVYNDMGWYRQAPGKERELVAAISTSGGSTYYADSVKGRFTISRDNAKNTVYLQMNSLKPEDTAVYFCAVDSYYFGYWAIQWEGDYWGQGTQVTVSS", "polyreactivity (PSR sort gate)": "low polyreactivity"},
      {"sequence": "QVQLVESGGGLVQAGGSLRLSSAASGSIFSQYDIGWYRPAPGKERQLVAAISSGGSTYYADSVKGRFTISRYNAKNTVYLQMNSLKPEDTAVYYCAAVYYQITTTHYLHLHYDYWGQGTQVTVSS", "polyreactivity (PSR sort gate)": "low polyreactivity"},
      {"sequence": "QVQLVESGGGLVQAGGRLRLSCASTGLTLHGNAMGWYRQAPGKERELVATISSSGGSTFYADSVKGRFTISRDNAKNTDYLQMNSLKPEDTAVYYCNADAPYSDDYYVRFDYWGQGTQVTVSS", "polyreactivity (PSR sort gate)": "low polyreactivity"},
      {"sequence": "QVKLEESGGGLVQEGGSLRISCAASVRIFGNYSMGWSRQAPGKEMELVAAIDLSGDSTYYADSVKGRFTISRDNAKNTVYLQMNSLKPEDTAVYYCAATDWFSEYYWGQATQVTVSS", "polyreactivity (PSR sort gate)": "low polyreactivity"},
      {"sequence": "QVQLVESGGGLVQAGGSLRLSCAASGSTFETNAMGWYRQAPGKERELVAAISVSGGDTYYADSVKGRFTISRDNAKNTVYLQMNSLKPEDTAVYYCAAAERGYIFPDRMRYDYWGQGTQVTVSS", "polyreactivity (PSR sort gate)": "low polyreactivity"},
      {"sequence": "QVQLVESGAGLVQAGGRLRLSCADSGYIFKSYAIGWYRQAPGKEREFVAAISWSGGSTYADSVKGRFTISRDNAKNTVYLQMNSLKPEDTAVYSCAAVDYYYYGVYSSWYEYWGQGTQVTVSS", "polyreactivity (PSR sort gate)": "low polyreactivity"},
      {"sequence": "QVQLVESGGGLVQAGGSLRLSCAASGFTFRRNAMGWYRQAPGKERELVAAITYNGGTTYYADSVKGRFTISRDNAKNTVYLLMNSLKPEDTAVYYCNAPYGRQGYDYWGQGTQVTVSS", "polyreactivity (PSR sort gate)": "low polyreactivity"},
      {"sequence": "QVQLEESGGGLVQAGGSLRLSCAASGSIFTANAMGWYRQAHGKERELVAAINRSGGRTYADSVKGRFTISRDNAKNTVYLQMNSLKPEDTAVYYCAAVGHVYKGHDFGYWGQGTQVTVSS", "polyreactivity (PSR sort gate)": "low polyreactivity"},
      {"sequence": "QVQLVESGVGLVPAGGSLRLSCAASGSTFSANAMGWYRQAPGKERELVAAITYRGANTYYADSVKGRFTISRDNAKNTVYLQLNSLKPEDTAVYYCAAEYAYHHVGFGYWGQGTQVTVSS", "polyreactivity (PSR sort gate)": "low polyreactivity"},
      {"sequence": "QVLLQESGGGLVQAGGSLRLSCAASGNIFSAGGMGCYRQAPVNERELVAGIGTGTSTNYADSVKGRFTISRDNAKNTVYLQMNSLKPEDTAVYYCAAAYYSGLSHWYWGQGTQVTVSS", "polyreactivity (PSR sort gate)": "low polyreactivity"},
      {"sequence": "QVQLVESGGGLVQAGGSLRLSCAASGSTFGPNGMGWYRQAPGKERELVARIDRIGGGTYYADSVKGRFTISRDNAKNTVYLQMNSLKPEDTAVYSCAADGPSPFIQGYAKGDYWGQGTQVTVSS", "polyreactivity (PSR sort gate)": "low polyreactivity"},
      {"sequence": "QVQLVESGGGLVQAGGSLRLSCAASGSIFLGNSMGWYRQAPGKERELVAAISSITGRTYYADSVKGRFTISRDNAKNTVYLQMNSLKPEDTAVYYCNKVKRSFIVNTDDYWGQGTQVTVSS", "polyreactivity (PSR sort gate)": "high polyreactivity"},
      {"sequence": "QVQLVESGGGLVQAGGSLRLSCAASGSTFSLYAMGWSRQAPGKERELVAAISRSGGRTYYADSVKGRFTISRDNAKNTVYLQMNSLKPEDTAVYYCAADSTSGYYWGQGTQVTVSS", "polyreactivity (PSR sort gate)": "high polyreactivity"},
      {"sequence": "QVQLVESGGGLVQAGGSLRLSCAASGIISSTNAMGWYRQEPGKERELVAAISGRGSGTYYADSVKGRFTISRDNAKNTVYLQMNRLKPEDTAVYYCAALSNVFQWWFKTNKSRYDYWGQGTQVTVSS", "polyreactivity (PSR sort gate)": "high polyreactivity"},
      {"sequence": "QVQLVESGGGLVQAGGSLRLRCAASGSIFFYYVMGWYRQAPGKEREFVAAITYSGGSTYYADSVKGRFTISRDNAKNTVYFQMNSMQQEDTAVYYCAADYSPSIGGFWFGGRHYGYWGQGTQVTVSS", "polyreactivity (PSR sort gate)": "low polyreactivity"},
      {"sequence": "QVQLVESGGGLVQAGGSLRLSCAASGSIFLEYTMGWYRQAPGKERELVASISWGGGSTYYADSVKGRFTISRDNAKNTVFLQMNSLKPEDTAVYYCNKVGGDPVRGGYDYWGQGTQVTVSS", "polyreactivity (PSR sort gate)": "low polyreactivity"},
      {"sequence": "QVQLVESGGGLVQAGGSLRLSCAASGFNFEVNAMGWYRQAPGKERELVAAITTDGSTNYADSVNGRFSSSRDNAKNTVYIQMTSLKPEDTAVYYCAARVQHYLGTDDYWGQGTQVTVSS", "polyreactivity (PSR sort gate)": "low polyreactivity"},
      {"sequence": "QVQLVESGGGLVQAGGSLRLSCAASGSIFADYAMGWYRQAPGKERELVAVITSGGRTNYADSVKGRFTISRDNAKNTVYLQMNSLKPEDTAVYYCDTRRYRYYAYRNYYYWGQGTQVTVSS", "polyreactivity (PSR sort gate)": "high polyreactivity"},
      {"sequence": "QVQLVESGGGLVQAGGSLRLSCAASGFTFGYYTMGWYRQAPGKERELVASISWDGGSTYYADSVKGRFTISRDNAKNTVYLQMHSLKPEDTAVYYCATDDYDQLAVGAYDYWGQGTQVTVSS", "polyreactivity (PSR sort gate)": "low polyreactivity"},
      {"sequence": "QVPLVESGGGLVQAGGSLRLSCAASGSIFWTYTIGWYRKAPGKERELVAAITSSGSTNFADSVKGRFTISRDNAKKTVYLQMNSLKPADTAVYYCAADPEYRGYQRYDYWGQGTQVTVSS", "polyreactivity (PSR sort gate)": "low polyreactivity"},
      {"sequence": "QVQLVESGGGLVQAGGSLRLSCAASGRIFYGNTMGWYRQAPGKERELVAAITIGDSTNYADSVKGRFTISRDNAKNTVYLQMNSLKPEDTEVYFCAKRNWWGYYKYDYWGQGTQVTVSS", "polyreactivity (PSR sort gate)": "low polyreactivity"},
      {"sequence": "QVQLVESGGGLVQAGGSLRLSSAASGFILDTNAMGWYRQAPGKERELVSAITKRGIRTYYADSVKGRFTISRDNAQNTVYLQMNSLKPEDTAVYYCNAQRPIATVWHRYDSWGQGTQVTVSS", "polyreactivity (PSR sort gate)": "high polyreactivity"},
      {"sequence": "QVQLVESGGGLVQAGGSLRLSCAASGSIFYYYAIGWYRKAPGKEREFVATIRRSGASTYYADSVKGRFTISRDNAKNTVYLQMNSLKPEDTAVYYCNAASARRPIYEAARWSKYDYWGQGTQVTVSS", "polyreactivity (PSR sort gate)": "low polyreactivity"},
      {"sequence": "QVQLVESGGGLVQAGGSLRLSCAASGFTFTYYAMGWYRQAPGKERELVAGITRSGGSTYYADSVKGRFTISRDNAKNTVYLHMNSLKPEDTAVYYCAAVGSLYYYRYDYWGQGTQVTVSS", "polyreactivity (PSR sort gate)": "high polyreactivity"},
      {"sequence": "QVQLVESGGGLVQAGGSLRLSCAASGFTFAYYTMGWYRQAPGKERELVAAINWSGGSTYYADSVKGRFTISRDNAKNTVYLQMNSLKPEDTAVYYCAAKSYWWATYEYWGQGTQVTVSS", "polyreactivity (PSR sort gate)": "high polyreactivity"},
      {"sequence": "QVQLVESGGGLDQAGGSLRLSCAASGSISGYNAMGWYRQAPGKERELVASIRYTGARSYYADSGKGRFTISRDNAKNTVYLQMNSLKPEDTAVYYCAADSAYDVTSYGYWGQGTQVTVSS", "polyreactivity (PSR sort gate)": "low polyreactivity"},
      {"sequence": "QVQLEDSGGGLVQAGGSLRLSCAASGFTILRYAMGWYRQAPGKERELVAAIDWYGGSTYYADSVKGRFTISRDNAKNTVFVQMNSLKPEDCAVYYCNARKINFPSRFNDWGQGTQVTVSS", "polyreactivity (PSR sort gate)": "low polyreactivity"},
      {"sequence": "QVQLVESGGGLVQAGGSLRLSCAASGRIFDNYAMGWYRQAPGKERELVAAITSTGRTNYADSVKGRFTISRDNAKYTVYLQMYSLKPEDTAVYYCNVDYQYARSGHANAYEYYYWGQGTQVTVSS", "polyreactivity (PSR sort gate)": "low polyreactivity"},
      {"sequence": "QVQLVESGGGLVQAGGRLRLSCAASGRTFNYYAMGWYRQAPGKERELVATISYNGASTYYADSVKGRFTISRDNAKNTVYLQMNSLKPEDTAVYYCAAGYLWRGRLGNWGQGTQVTVSS", "polyreactivity (PSR sort gate)": "high polyreactivity"},
      {"sequence": "QGQHVESGGGLVHAGGSLRLSCAASGSIFPYYAMGWYRQRPGKERELVAAITDCGSTNYADSVKGRFTISRDNAKNTVYLQMNSLKPEDTAVYYCNKLAGYYDYDYWGQCTQVTVSS", "polyreactivity (PSR sort gate)": "low polyreactivity"},
      {"sequence": "QVQLVESGGGLVQAGGSLRLSCAASGRTFTSYAMGWYRQAPGKERELVAVITWRGVSTYYADSVKGRFTISRDNAKNTVYLQMNSLKPEDTAVYYCAARRPGYYPYKGFDYWGQGTQVTVSS", "polyreactivity (PSR sort gate)": "high polyreactivity"},
      {"sequence": "QVQLVESGGGLVQAGGSLRLSCAASGSIFSRYTMGWYRQPPGKERELVAAITSSGGRTYYADSVKGRFRISRDNAKNTVYLQLNSLKPVVTAVYYCAARIQKQQGYGYWGQGTQVTVSS", "polyreactivity (PSR sort gate)": "high polyreactivity"},
      {"sequence": "QVQLVESGGGLVQAGGSLRLSCAASGRTFTSNAMGWYRQAPGKESELVAVITTSGDRTFYADSVKGRFTISRDNAKNTVYLQMNSLKPEDTAVYYCAADVRLTRGFDYWVQGTQVTVSS", "polyreactivity (PSR sort gate)": "high polyreactivity"},
      {"sequence": "QVQLEESGGGLVQAGGSLRLSCAASGRIFHKNAMGWYRQAPGKEREFVATISSRGGSTYYADSVKGRFTISRDNSKNTVYLQMNSLKPEDSAVYYCAAGWYRNDWGQRLHTYYYWGQGTQVTVSS", "polyreactivity (PSR sort gate)": "high polyreactivity"},
      {"sequence": "QVQLVESGGGLVQAGGSLRLSCAASGFTFYGNALGWYRQAPGKARELVAAISRSGGSTYYADSVKGRFTISRDNAKNTVYLQMNSLKPDDTAVYYCAVYVRKWYAVTDQYSGSDYWGQGTQVTVSS", "polyreactivity (PSR sort gate)": "high polyreactivity"},
      {"sequence": "QVQLVESAGGLVQAGGSLRLSCAASGRTFIQYAMGWYRQAPGKERELVAVIRWSGGRTYYADTVKGRFTISRDNAKNTVYLQMNSLKPEDTAVYYCAKRSGSTFDWGQGTQVTVSS", "polyreactivity (PSR sort gate)": "high polyreactivity"},
      {"sequence": "QVQLVESGGGLVQAGGSLSLSSAASGRTFGIYAMGWYRQEPGKERELVAAITWSGDSTYYADSVKGRFTISRDNAKNTVYLQLNSLKPEDTAVDYCAADYVGVTYVRYDYWGQGTQVTVSS", "polyreactivity (PSR sort gate)": "low polyreactivity"},
      {"sequence": "QVQLVEAGGGLVQAGGRLRLSCAASGIIIVPYTMGWYRQAPGKERELVAAISRSGGRTYYADSVKGRFTISRDNAKNTVYLQMNSLKPEDTAVYDCNKRSLYYGYYLYYRMDYWGQGTQVTVSS", "polyreactivity (PSR sort gate)": "high polyreactivity"},
      {"sequence": "QGQLVESGGGLVQAGGSLRLSCAASGSTFRYNTMGWYRQAPGKERELVAAISSGGGTHYADSVKGRFTISRDNAKNTVYLQMNSLKPEDTAVYYCAAQSRYRYQFYSGLEYDYWGQGTQVTVSS", "polyreactivity (PSR sort gate)": "low polyreactivity"}
    ]}
  ]
}
